According to patent US20220411483A1 (Chugai, published 2022):

T1: human FcγRIIa R type extracellular domain with C-terminal His tag (human, UniProt P12318 34-217)
T1 construct: extracellular domain; also called FcgRIIaR
T1 sequence (looked up): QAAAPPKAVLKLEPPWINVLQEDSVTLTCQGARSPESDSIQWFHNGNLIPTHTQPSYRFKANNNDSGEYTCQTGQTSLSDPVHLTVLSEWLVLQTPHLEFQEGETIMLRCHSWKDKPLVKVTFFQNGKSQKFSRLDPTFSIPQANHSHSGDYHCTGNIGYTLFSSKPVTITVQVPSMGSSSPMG

T2: human FcγRIIa H type extracellular domain with C-terminal His tag (human, UniProt P12318 34-217)
T2 construct: extracellular domain; also called FcgRIIaH
T2 sequence (looked up): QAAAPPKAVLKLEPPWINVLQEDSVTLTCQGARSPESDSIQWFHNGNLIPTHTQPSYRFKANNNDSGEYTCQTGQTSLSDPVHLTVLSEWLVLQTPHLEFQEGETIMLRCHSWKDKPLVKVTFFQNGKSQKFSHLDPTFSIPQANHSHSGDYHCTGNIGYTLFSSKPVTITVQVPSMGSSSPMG

T3: human FcγRIIb extracellular domain with C-terminal His tag (human, UniProt P31994 43-217)
T3 construct: extracellular domain; also called FcgRIIb
T3 sequence (looked up): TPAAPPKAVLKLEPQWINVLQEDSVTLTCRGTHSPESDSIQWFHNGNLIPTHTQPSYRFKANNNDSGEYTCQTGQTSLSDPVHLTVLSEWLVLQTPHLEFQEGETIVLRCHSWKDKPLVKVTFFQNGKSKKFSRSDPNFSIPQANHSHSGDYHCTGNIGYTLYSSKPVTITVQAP


Assays:
[1] = target: T1, human FcγRIIa R type extracellular …; test: SPR, KD of IL6R-G1d/IL6R-L divided by KD of variant
[2] = target: T2, human FcγRIIa H type extracellular …; test: as above
[3] = target: T4, human FcγRIa extracellular domain with C-terminal His tag (human, UniProt P12314 16-292); test: as above
T4 construct: Whole entry named; also called FcgRIa
T4 sequence (P12314 16-292): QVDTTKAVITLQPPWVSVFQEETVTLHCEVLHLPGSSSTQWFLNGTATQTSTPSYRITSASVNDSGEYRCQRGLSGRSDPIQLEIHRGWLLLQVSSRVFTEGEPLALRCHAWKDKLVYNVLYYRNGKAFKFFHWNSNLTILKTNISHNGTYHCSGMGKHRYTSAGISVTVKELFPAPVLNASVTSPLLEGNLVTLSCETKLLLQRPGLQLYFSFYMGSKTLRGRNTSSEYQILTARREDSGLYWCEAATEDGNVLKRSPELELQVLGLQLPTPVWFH

[4] = target: T5, human FcγRIIIa V type extracellular domain with C-terminal His tag (human, UniProt P08637 17-208); test: as above
T5 construct: extracellular domain; also called FcgRIIIaV
T5 sequence (P08637 17-208 F176V): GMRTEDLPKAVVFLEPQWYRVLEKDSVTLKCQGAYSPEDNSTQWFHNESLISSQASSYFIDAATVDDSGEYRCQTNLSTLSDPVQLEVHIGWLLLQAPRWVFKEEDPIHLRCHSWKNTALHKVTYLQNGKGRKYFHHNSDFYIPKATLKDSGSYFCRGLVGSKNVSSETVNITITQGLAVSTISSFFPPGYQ

[5] = target: T3, human FcγRIIb extracellular domain with …; test: as above
[6] = target: T1, human FcγRIIa R type extracellular …; test: SPR, antibody captured, FcgR analyte
[7] = target: T4, human FcγRIa extracellular domain with …; test: SPR, antibody captured, FcgR analyte
[8] = target: T3, human FcγRIIb extracellular domain with …; test: SPR, antibody captured, FcgR analyte

| Binder | Relative FcgRIIaR-binding Activity [1] | Relative FcgRIIaH-binding Activity [2] | Relative FcgRIa-binding Activity [3] | Relative FcgRIIIaV-binding Activity [4] | Relative FcgRIIb-binding Activity [5] | Kd [6] | Kd [7] | Kd [8] |
| --- | --- | --- | --- | --- | --- | --- | --- | --- |
| IL6R-P751/IL6R-L (antibody, human IgG1, kappa) heavy: QVQLQESGPGLVKPSETLSLTCAVSGHSISHDHAWSWVRQPPGEGLEWIGFISYSGITNYNPSLQGRVTISRDNSKNTLYLQMNSLRAEDTAVYYCARSLARTTAMDYWGEGTLVTVSSASTKGPSVFPLAPSSKSTSGGTAALGCLVKDYFPEPVTVSWNSGALTSGVHTFPAVLQSSGLYSLSSVVTVPSSSLGTQTYICNVNHKPSNTKVDKKVEPKSCDKTHTCPPCPAPELFGQDSVMLFPPKPKDTLMISRTPEVTCVVVDVSPEDPEVKFNWYVDGVEVHNAKTKPREEQENSTYRVVSVLTVLHQDWLNGKEYKCEVSNKALPAPIEKTISKAKGQPREPQVYTLPPSRDELTKNQVSLTCLVKGFYPSDIAVEWESNGQPENNYKTTPPVLDSDGSFFLYSKLTVDKSRWQQGNVFSCSVMHEALHNHYTQKSLSLSP light: not shown | 0.06 | 0.013 | 0.001 | 0.007 | 0.6 | 19 µM | 0.24 µM | 3.5 µM |
| IL6R-P755/IL6R-L (antibody, human IgG1, kappa) heavy: QVQLQESGPGLVKPSETLSLTCAVSGHSISHDHAWSWVRQPPGEGLEWIGFISYSGITNYNPSLQGRVTISRDNSKNTLYLQMNSLRAEDTAVYYCARSLARTTAMDYWGEGTLVTVSSASTKGPSVFPLAPSSKSTSGGTAALGCLVKDYFPEPVTVSWNSGALTSGVHTFPAVLQSSGLYSLSSVVTVPSSSLGTQTYICNVNHKPSNTKVDKKVEPKSCDKTHTCPPCPAPELLGQDSVMLFPPKPKDTLMISRTPEVTCVVVDVSPEDPEVKFNWYVDGVEVHNAKTKPREEQENSTYRVVSVLTVLHQDWLNGKEYKCEVHNKALPHPIEKTISKAKGQPREPQVYTLPPSRDELTKNQVSLTCLVKGFYPSDIAVEWESNGQPENNYKTTPPVLDSDGSFFLYSKLTVDKSRWQQGNVFSCSVMHEALHNHYTQKSLSLSP light: not shown | 0.06 | 0.005 | 0.004 | 0.005 | 0.5 | 17 µM | 0.085 µM | 4.1 µM |
| IL6R-P753/IL6R-L (antibody, human IgG1, kappa) heavy: QVQLQESGPGLVKPSETLSLTCAVSGHSISHDHAWSWVRQPPGEGLEWIGFISYSGITNYNPSLQGRVTISRDNSKNTLYLQMNSLRAEDTAVYYCARSLARTTAMDYWGEGTLVTVSSASTKGPSVFPLAPSSKSTSGGTAALGCLVKDYFPEPVTVSWNSGALTSGVHTFPAVLQSSGLYSLSSVVTVPSSSLGTQTYICNVNHKPSNTKVDKKVEPKSCDKTHTCPPCPAPELFGQDSVMLFPPKPKDTLMISRTPEVTCVVVDVSPEDPEVKFNWYVDGVEVHNAKTKPREEQENSTYRVVSVLTVLHQDWLNGKEYKCEVHNKALPAPIEKTISKAKGQPREPQVYTLPPSRDELTKNQVSLTCLVKGFYPSDIAVEWESNGQPENNYKTTPPVLDSDGSFFLYSKLTVDKSRWQQGNVFSCSVMHEALHNHYTQKSLSLSP light: not shown | 0.06 | 0.014 | 0.003 | 0.007 | 0.8 | 18 µM | 0.11 µM | 2.8 µM |
| IL6R-P752/IL6R-L (antibody, human IgG1, kappa) heavy: QVQLQESGPGLVKPSETLSLTCAVSGHSISHDHAWSWVRQPPGEGLEWIGFISYSGITNYNPSLQGRVTISRDNSKNTLYLQMNSLRAEDTAVYYCARSLARTTAMDYWGEGTLVTVSSASTKGPSVFPLAPSSKSTSGGTAALGCLVKDYFPEPVTVSWNSGALTSGVHTFPAVLQSSGLYSLSSVVTVPSSSLGTQTYICNVNHKPSNTKVDKKVEPKSCDKTHTCPPCPAPELFGQDSVMLFPPKPKDTLMISRTPEVTCVVVDVSPEDPEVKFNWYVDGVEVHNAKTKPREEQENSTYRVVSVLTVLHQDWLNGKEYKCAVHNKALPAPIEKTISKAKGQPREPQVYTLPPSRDELTKNQVSLTCLVKGFYPSDIAVEWESNGQPENNYKTTPPVLDSDGSFFLYSKLTVDKSRWQQGNVFSCSVMHEALHNHYTQKSLSLSP light: not shown | 0.03 | 0.013 | 0.002 | 0.006 | 0.5 | 41 µM | 0.15 µM | 4.2 µM |

Now those with a lower Kd [6], led by results:

| Relative FcgRIIaR-binding Activity [1] | Relative FcgRIIaH-binding Activity [2] | Relative FcgRIa-binding Activity [3] | Relative FcgRIIIaV-binding Activity [4] | Relative FcgRIIb-binding Activity [5] | Kd [6] | Kd [7] | Kd [8] | Binder |
| --- | --- | --- | --- | --- | --- | --- | --- | --- |
| 0.11 | 0.003 | 0.002 | 0.004 | 0.3 | 10 µM | 0.19 µM | 7.7 µM | IL6R-P754/IL6R-L (antibody, human IgG1, kappa) heavy: QVQLQESGPGLVKPSETLSLTCAVSGHSISHDHAWSWVRQPPGEGLEWIGFISYSGITNYNPSLQGRVTISRDNSKNTLYLQMNSLRAEDTAVYYCARSLARTTAMDYWGEGTLVTVSSASTKGPSVFPLAPSSKSTSGGTAALGCLVKDYFPEPVTVSWNSGALTSGVHTFPAVLQSSGLYSLSSVVTVPSSSLGTQTYICNVNHKPSNTKVDKKVEPKSCDKTHTCPPCPAPELLGQDSVMLFPPKPKDTLMISRTPEVTCVVVDVSPEDPEVKFNWYVDGVEVHNAKTKPREEQENSTYRVVSVLTVLHQDWLNGKEYKCAVHNKALPHPIEKTISKAKGQPREPQVYTLPPSRDELTKNQVSLTCLVKGFYPSDIAVEWESNGQPENNYKTTPPVLDSDGSFFLYSKLTVDKSRWQQGNVFSCSVMHEALHNHYTQKSLSLSP light: not shown |
| 0.48 | 0.026 | 0.188 | 0.008 | 21 | 2.3 µM | 0.0017 µM | 0.1 µM | IL6R-P757/IL6R-L (antibody, human IgG1, kappa) heavy: QVQLQESGPGLVKPSETLSLTCAVSGHSISHDHAWSWVRQPPGEGLEWIGFISYSGITNYNPSLQGRVTISRDNSKNTLYLQMNSLRAEDTAVYYCARSLARTTAMDYWGEGTLVTVSSASTKGPSVFPLAPSSKSTSGGTAALGCLVKDYFPEPVTVSWNSGALTSGVHTFPAVLQSSGLYSLSSVVTVPSSSLGTQTYICNVNHKPSNTKVDKKVEPKSCDKTHTCPPCPAPELLGGDSVFLFPPKPKDTLMISRTPEVTCVVIDVAEEDGEVKFNWYVDGVEVHNAKTKPREEQYNSTYRVVSVLTVLHQDWLNGKEYKCKVSNKGLPSSIEKTISKAKGQPREPQVYTLPPSRDELTKNQVSLTCLVKGFYPSDIAVEWESNGQPENNYKTTPPVLDSDGSFFLYSKLTVDKSRWQQGNVFSCSVMHEALHNHYTQKSLSLSP light: not shown |
| 0.58 | 0.021 | 0.029 | 0.006 | 8.1 | 1.9 µM | 0.011 µM | 0.26 µM | IL6R-P758/IL6R-L (antibody, human IgG1, kappa) heavy: QVQLQESGPGLVKPSETLSLTCAVSGHSISHDHAWSWVRQPPGEGLEWIGFISYSGITNYNPSLQGRVTISRDNSKNTLYLQMNSLRAEDTAVYYCARSLARTTAMDYWGEGTLVTVSSASTKGPSVFPLAPSSKSTSGGTAALGCLVKDYFPEPVTVSWNSGALTSGVHTFPAVLQSSGLYSLSSVVTVPSSSLGTQTYICNVNHKPSNTKVDKKVEPKSCDKTHTCPPCPAPELLGDDSVFLFPPKPKDTLMISRTPEVTCVVVDVSDEDGEVKFNWYVDGVEVHNAKTKPREEQYNSTYRVVSVLTVLHQDWLNGKEYKCKVSNKGLPSSIEKTISKAKGQPREPQVYTLPPSRDELTKNQVSLTCLVKGFYPSDIAVEWESNGQPENNYKTTPPVLDSDGSFFLYSKLTVDKSRWQQGNVFSCSVMHEALHNHYTQKSLSLSP light: not shown |
| 0.65 | 0.03 | 0.291 | 0.007 | 40.4 | 1.7 µM | 0.0011 µM | 0.052 µM | IL6R-P756/IL6R-L (antibody, human IgG1, kappa) heavy: QVQLQESGPGLVKPSETLSLTCAVSGHSISHDHAWSWVRQPPGEGLEWIGFISYSGITNYNPSLQGRVTISRDNSKNTLYLQMNSLRAEDTAVYYCARSLARTTAMDYWGEGTLVTVSSASTKGPSVFPLAPSSKSTSGGTAALGCLVKDYFPEPVTVSWNSGALTSGVHTFPAVLQSSGLYSLSSVVTVPSSSLGTQTYICNVNHKPSNTKVDKKVEPKSCDKTHTCPPCPAPDLLGGDSVFLFPPKPKDTLMISRTPEVTCVVIDVAEEDGEVKFNWYVDGVEVHNAKTKPREEQYNSTYRVVSVLTVLHQDWLNGKEYKCKVSNKGLPSSIEKTISKAKGQPREPQVYTLPPSRDELTKNQVSLTCLVKGFYPSDIAVEWESNGQPENNYKTTPPVLDSDGSFFLYSKLTVDKSRWQQGNVFSCSVMHEALHNHYTQKSLSLSP light: not shown |
